Measured values reported in patent US20090143311A1 (published 2009).

Legend:
[1] = biological target: angiotensin I converting enzyme (ACE); experiment: cell-based or functional assay
[2] = biological target: angiotensin I converting enzyme (ACE); experiment: cell-based or functional assay; remark: listed apart in the source

Row | Binder | IC50 value in µM, Modified Matsui assay (ACE inhibition, cleavage of Hip-His-Leu) [1] | IC50 value in µM, at-line ACE assay (ACE inhibition, cleavage of hippuryl-His-Leu) [1] | IC50 value in the Modified Matsui test (ACE inhibition) [2]
1 | IPP [tripeptide IPP] | 2 µM | 7.1 µM | 
2 | ITP [tripeptide Isoleucine-Threonine-Proline (Ile-Thr-Pro)] | 10 µM | 50 µM | 
3 | MAP [tripeptide Methionine-Alanine-Proline (Met-Ala-Pro)] | 0.4 µM | 3.8 µM | 0.5 µM
